Results on two molecules are retold here after patent US20250297004A1, “NECTIN-4 BINDING AGENTS” (INNATE PHARMA, priority 2022, published 2025).

Holding throughout (experiment): Epitope mapping using Nectin-4 point mutants
Holding throughout (format): binding

For experiment [1], the target named is T1, human Nectin-4 Mutant 9 (L150S/S152A/Q234R/I236S) (Homo sapiens, UniProt Q96NY8, I236S/L150S/Q234R/S152A).
T1 construct: expressed in transfected cells; host or cells: HEK293T
T1 sequence (Q96NY8 32-510 L150S/S152A/Q234R/I236S): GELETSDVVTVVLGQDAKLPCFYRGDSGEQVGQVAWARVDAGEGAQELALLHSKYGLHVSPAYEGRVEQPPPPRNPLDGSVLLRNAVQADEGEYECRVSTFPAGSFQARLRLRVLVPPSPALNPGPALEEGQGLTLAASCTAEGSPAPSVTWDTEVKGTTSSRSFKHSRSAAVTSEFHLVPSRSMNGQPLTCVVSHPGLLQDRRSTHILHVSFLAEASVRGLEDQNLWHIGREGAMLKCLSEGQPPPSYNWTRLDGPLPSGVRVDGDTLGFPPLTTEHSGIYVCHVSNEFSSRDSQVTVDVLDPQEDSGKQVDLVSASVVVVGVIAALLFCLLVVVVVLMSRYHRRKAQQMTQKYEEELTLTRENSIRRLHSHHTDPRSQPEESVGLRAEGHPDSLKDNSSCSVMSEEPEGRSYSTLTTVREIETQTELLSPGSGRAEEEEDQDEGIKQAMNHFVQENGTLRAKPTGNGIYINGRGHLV
An excerpt: (§1) Combined with the published structures of the Nectin-4 domains, Nectin-4 mutations at surface exposed amino acids residues were designed. Nectin-4 domain structure was modelled based on Protein Data Bank reference: 4FRW (domains V et C1). Human Nectin-4 used was NCBI Reference Sequence: NP_112178.2, mouse Nectin-4 used was NCBI Reference Sequence: AAL79833.1, cynomolgus Nectin-4 used was NCBI Reference Sequence: XP_005541277.1, rat Nectin-4 used was NCBI Reference Sequence: NP_001102546.1. The cells expressing the Nectin-4 mutants are then be used for testing anti-Nectin-4 antibodies for loss of binding to different Nectin-4 mutants to identify antibodies that bind to the same site on Nectin-4. […] FIGS. 8A and 8B show different view of a molecular model of the human Nectin-4 protein, indicating the position of substituted residues in mutants 1, 2, 3, 4, 5, 6, 7, 8 and 9.
(§2) Nectin-4 mutants were generated by PCR. The sequences amplified were run on agarose gel and purified using the Macherey Nagel PCR Clean-Up Gel Extraction kit. The purified PCR products generated for each mutant were then ligated into an expression vector, with the ClonTech InFusion system. The vectors containing the mutated sequences were prepared as Miniprep and sequenced. After sequencing, the vectors containing the mutated sequences were prepared as Midiprep using the Promega PureYield™ Plasmid Midiprep System. HEK293T cells were grown in DMEM medium (Invitrogen), transfected with vectors using Invitrogen's Lipofectamine 2000 and incubated at 37° C. in a CO2 incubator for 48 hours prior to testing for transgene expression. The targeted amino acid mutations are shown in Table 13 below, listing the residue present in wild-type Nectin-4/position of residue/residue present in mutant Nectin-4, with position reference being to the Nectin-4 protein with leader peptide shown in SEQ ID NO: 1.
(§3) (+) means that antibodies-Nectin-4 association occurs.

Experiment [2] has as its target T2, human Nectin-4 Mutant 6 (H238A/I239T/H241Q) (Homo sapiens, UniProt Q96NY8, H238A/H241Q/I239T).
T2 construct: expressed in transfected cells; host or cells: HEK293T
T2 sequence (Q96NY8 32-510 H238A/I239T/H241Q): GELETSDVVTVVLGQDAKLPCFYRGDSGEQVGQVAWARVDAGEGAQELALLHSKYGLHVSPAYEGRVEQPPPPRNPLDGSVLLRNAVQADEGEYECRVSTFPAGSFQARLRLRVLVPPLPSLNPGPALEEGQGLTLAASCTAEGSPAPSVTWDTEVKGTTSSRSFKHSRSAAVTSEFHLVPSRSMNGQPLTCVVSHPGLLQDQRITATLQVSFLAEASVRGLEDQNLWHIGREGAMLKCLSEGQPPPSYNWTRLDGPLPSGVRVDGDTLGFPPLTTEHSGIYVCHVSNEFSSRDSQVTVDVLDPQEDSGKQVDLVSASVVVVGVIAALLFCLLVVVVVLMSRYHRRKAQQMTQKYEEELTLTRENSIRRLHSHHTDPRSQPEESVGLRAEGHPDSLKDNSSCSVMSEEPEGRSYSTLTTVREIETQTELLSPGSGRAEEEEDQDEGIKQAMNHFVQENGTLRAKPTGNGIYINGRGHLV
Text: as §1, §2, §3

Experiment [3] deals with human Nectin-4 Mutant 5 (A158P/E160G/S243A/F244S). The following applies: results irrelevant due to an absence of expression of said protein.
Text: as §1, §2, §3

The target in experiment [4] is T3, human Nectin-4 Mutant 3 (A76S/Q77R/E78A/S91N) (Homo sapiens, UniProt Q96NY8, A76S/E78A/Q77R/S91N).
T3 construct: expressed in transfected cells; host or cells: HEK293T
T3 sequence (Q96NY8 32-510 A76S/Q77R/E78A/S91N): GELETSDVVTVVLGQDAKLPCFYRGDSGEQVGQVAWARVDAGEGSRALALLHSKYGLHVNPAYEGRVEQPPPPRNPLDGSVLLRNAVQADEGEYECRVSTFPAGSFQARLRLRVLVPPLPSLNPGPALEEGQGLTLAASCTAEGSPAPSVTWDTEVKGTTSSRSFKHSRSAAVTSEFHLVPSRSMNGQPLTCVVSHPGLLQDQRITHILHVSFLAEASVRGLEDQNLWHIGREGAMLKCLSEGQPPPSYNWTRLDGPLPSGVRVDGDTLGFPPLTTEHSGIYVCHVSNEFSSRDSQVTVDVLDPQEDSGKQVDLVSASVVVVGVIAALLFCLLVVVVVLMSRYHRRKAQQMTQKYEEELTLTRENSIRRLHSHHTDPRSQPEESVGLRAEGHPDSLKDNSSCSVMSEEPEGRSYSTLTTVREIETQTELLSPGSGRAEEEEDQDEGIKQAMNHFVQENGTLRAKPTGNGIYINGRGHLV
Text: as §1, §2, §3

B1: N41 (antibody, V domains shown)
VH: QVQLKQSGPGLVQPSQSLSITCTVSGFSLTNYGVHWVRQSPGKGLEWLGVIWSGGSTDYNAAFISRLSISKDTSKSQVFFKMNSLQADDTAIYYCARELIHAMDNWGQGTSVTVSS
VL: DIQMTQSPASLSVSVGETVTITCRASENIYSNLAWYQQKQGNSPQLLVFAATNLADGVPSRFSGSGSGTQYSLKINSLQSEDFGTYYCQHFWGTPTFGGGTKLEIK
Regarding B1, in experiment [1], the “association with Mutant 9” value is given as “+”. In addition, the “association with Mutant 6” value in experiment [2] was “+”. The “association with Mutant 5” value in experiment [3] is listed as “−”. Further, the “association with Mutant 3” value in experiment [4] is listed as “+”.

B2: 5E7 (antibody, V domains shown)
VH: QVQLQQPGAELVKPGASVKLSCKASGYIFTSYWMHWVKQRPGQGLEWIGEIDPSDSYTNYNQKFKGKATLTLDKSSSTTYMQLSSLTSEDSAVYYCVRGYGNYGDYWGQGTTLTVSSASTKGP
VL: DVVMTQAAFSNPVTLGTSASISCRSSKSLLHSNGITYLYWYLQKPGQSPQLLIYQMSNLASGVPDRFSSSGSGTDFTLRISRVEAEDVGVYYCAQNLELPWTFGGGTKLEIKRTVAAP
B2: the “association with Mutant 9” value in experiment [1] is reported as “+”. In addition, the “association with Mutant 6” value in experiment [2] is reported as “+”. Besides, the “association with Mutant 5” value in experiment [3] is “−”. Further, the “association with Mutant 3” value in experiment [4] is recorded as “+”.
